Switch fluorescence ratio data for 78 sequences are collected here from the supplement of paper PMC10126150.

± gives the standard deviation of the averaged measurements.
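Also: ATP exposure 15 min at 22 °C before imaging.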

The data set deals with ATP. Kind of data set: switch fluorescence ratio, 500 uM ATP over buffer (Cy3 cluster intensity, sum of 5 cycles each) (fold (ratio)); higher = stronger signal-on switching upon ATP binding; sequences stand for … in TCGTCGGCAGCGTCAGATGTGTATAAGAGACAGTTTTTTTTTTTTTTTTTTTTTTTTT…TC. Conditions: aptamer strand: ATP DNA aptamer (quencher-CACCTGGGGGAGTATTGCGGAGGAAGG + anchor), 100 nM annealed; ATP concentration: 500 uM. A digest of the protocol: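 For every switch-domain sequence, the fluorescence ratio is the mean of per-cluster values, each being summed target-cycle Cy3 intensity over summed buffer-cycle Cy3 intensity. Clusters outside 100-1000 RFU were excluded. On a modified Illumina MiSeq flow-cell, the Cy3-labelled switching-strand clusters were annealed to 100 nM quencher-labelled ATP aptamer, imaged in selection buffer and then after 15 min with 500 uM ATP at 22 °C. Five such cycles were run, with NaOH stripping and re-annealing between them.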
With GGGCAAAGTA, the switch fluorescence ratio is 0.924 ± 0.039.

Regarding TAAACCGCGG, the switch fluorescence ratio was 1.01 ± 0.059.

In the case of AACTTTTTTT, the switch fluorescence ratio was found to be 0.98236 ± 0.00064.

As for GCTGGATCCG, the switch fluorescence ratio was 1.07 ± 0.11.

With TCAAGGCCGG, the switch fluorescence ratio was determined as 1.02 ± 0.035.

TAAGTGTGTG: the switch fluorescence ratio worked out at 0.975 ± 0.021.

On to AATGAAAAAC, for which the switch fluorescence ratio was determined as 1.007 ± 0.0054.

With TCTTTTGTG, the switch fluorescence ratio amounted to 1.13 ± 0.2.

In the case of AAGGGGCCTG, the switch fluorescence ratio is 0.977 ± 0.018.

As for AGGGATTTTT, the switch fluorescence ratio came out at 0.999 ± 0.011.

Consider GATTAATGTT, for which the switch fluorescence ratio was 1 ± 0.022.

For GGATTTCAGG, the switch fluorescence ratio is 0.982 ± 0.017.

For ATAGGCAGAG, the switch fluorescence ratio stood at 1.003 ± 0.0083.

As for CTGGACGCTG, the switch fluorescence ratio stood at 1.01 ± 0.017.

With TGGGCTTCGG, the switch fluorescence ratio came out at 0.9689 ± 0.0093.

For CTGAGCTTCG, the switch fluorescence ratio came to 1 ± 0.0032.

In the case of GATCTATTGT, the switch fluorescence ratio was 0.9619 ± 0.0088.

Take GGTGAAGTGT: the switch fluorescence ratio came out at 1 ± 0.0051.

On to TGTTGTAAAC, for which the switch fluorescence ratio came out at 1.05 ± 0.032.

Consider TGAAGGGGTA, for which the switch fluorescence ratio worked out at 1.01 ± 0.059.

CCCGGTACGG: the switch fluorescence ratio is 1.029 ± 0.0017.

Consider GCCTGCTGGA, for which the switch fluorescence ratio amounted to 1.002 ± 0.0023.

On to GATGCTTCTG, for which the switch fluorescence ratio stood at 1.02 ± 0.032.

As for ATTAGAGATT, the switch fluorescence ratio turned out to be 1.01 ± 0.028.

For the sequence CGTTTTCAGA, the switch fluorescence ratio came to 0.9966 ± 0.0015.

GATTGGTAGG: the switch fluorescence ratio turned out to be 0.981 ± 0.017.

In the case of TTCTCTTGTT, the switch fluorescence ratio came to 1 ± 0.037.

Turning to CCGGTCTTTT, the switch fluorescence ratio was found to be 0.961 ± 0.018.

With GGGGTGGCTA, the switch fluorescence ratio was found to be 1.02 ± 0.019.

On to GACGAGGAGG, for which the switch fluorescence ratio turned out to be 1 ± 0.017.

As to TTTTCTGGAA, the switch fluorescence ratio was determined as 1.01 ± 0.029.

As to AAGATCACTG, the switch fluorescence ratio stood at 1.06 ± 0.068.

As to TCCATTAGTT, the switch fluorescence ratio amounted to 1.04 ± 0.069.

Consider TTATCGGGAG, for which the switch fluorescence ratio was found to be 0.9964 ± 0.0019.

With GGGGTTCGTG, the switch fluorescence ratio worked out at 0.975 ± 0.041.

With CGATAAGCGG, the switch fluorescence ratio is 1.02 ± 0.035.

With TTTTACTTTT, the switch fluorescence ratio was found to be 1.01 ± 0.037.

Take AGGTTAGGTG: the switch fluorescence ratio amounted to 1.42 ± 0.34.

ACAGTTGGCT: the switch fluorescence ratio is 1.0179 ± 0.00096.

TCTTGTGCAT: the switch fluorescence ratio came to 1.05 ± 0.03.

In the case of TTAATGGCTA, the switch fluorescence ratio turned out to be 0.976 ± 0.021.

Consider TATGGTGGTT, for which the switch fluorescence ratio was determined as 1.12 ± 0.12.

Regarding AATTTGGGTG, the switch fluorescence ratio came to 1.04 ± 0.049.

For the sequence TACGTGGGTG, the switch fluorescence ratio was 1.05 ± 0.02.

Take ACGACGAAAC: the switch fluorescence ratio was 3.35 ± 1.

As to GGGGGTTTGA, the switch fluorescence ratio is 1 ± 0.022.

As to AAGAGATATG, the switch fluorescence ratio is 1.02 ± 0.059.

For CTGTTTCGAC, the switch fluorescence ratio came to 1.02 ± 0.051.

In the case of GGATCGTTGA, the switch fluorescence ratio is 0.977 ± 0.019.

Turning to ATTTTGTTCT, the switch fluorescence ratio amounted to 0.993 ± 0.031.

Regarding GTTTGCTGGT, the switch fluorescence ratio turned out to be 1 ± 0.015.

With CTGTGGATGC, the switch fluorescence ratio was 1.089 ± 0.0038.

As to TCTTATGCGG, the switch fluorescence ratio turned out to be 0.998 ± 0.019.

In the case of GTAGCGGGAG, the switch fluorescence ratio is 1.057 ± 0.0053.

In the case of GCAACCACCG, the switch fluorescence ratio turned out to be 1.137 ± 0.0038.

In the case of TGATTTGGGG, the switch fluorescence ratio came to 0.9675 ± 0.0076.

For GGTGTTCATG, the switch fluorescence ratio is 0.974 ± 0.024.

In the case of AAACGGACGC, the switch fluorescence ratio was determined as 1.2 ± 0.023.

As for AAGAGGATG, the switch fluorescence ratio turned out to be 0.977 ± 0.023.

Regarding CGTAATTTGA, the switch fluorescence ratio was found to be 1.02 ± 0.047.

With CACGGATGGT, the switch fluorescence ratio turned out to be 1.01 ± 0.069.

As for AGGAGGGGTT, the switch fluorescence ratio is 1.01 ± 0.037.

For TCGTGTTTCA, the switch fluorescence ratio is 1 ± 0.014.

With TAGATAGGGA, the switch fluorescence ratio was found to be 1.01 ± 0.024.

As to ACAAACGGCA, the switch fluorescence ratio was 1.33 ± 0.024.

In the case of CAACGGGGGG, the switch fluorescence ratio was 0.998 ± 0.029.

For CGATCCGGGC, the switch fluorescence ratio was found to be 1.05 ± 0.043.

For GTGTGCTTAG, the switch fluorescence ratio was found to be 1.027 ± 0.004.

Regarding AGGGTGGAAA, the switch fluorescence ratio amounted to 1.02 ± 0.019.

Turning to GCTAGTAGTC, the switch fluorescence ratio was 1.01 ± 0.046.

On to CATTTGGCGT, for which the switch fluorescence ratio is 0.972 ± 0.029.

For TCACATTATA, the switch fluorescence ratio was 1.009 ± 0.0078.

For TGGGGAGGTT, the switch fluorescence ratio was 0.97 ± 0.044.

On to TTTGGGAAAG, for which the switch fluorescence ratio came to 0.978 ± 0.032.

Regarding CTAGGGGGTT, the switch fluorescence ratio is 1 ± 0.034.

As for TTTTTATGAA, the switch fluorescence ratio was 1.011 ± 0.0019.

For the sequence TAGGGCGCCG, the switch fluorescence ratio worked out at 1.0192 ± 0.00067.

In the case of TAGGTCATAT, the switch fluorescence ratio came out at 1 ± 0.022.
